# Measured values as given in publication PMC8263776, “Calmodulin-dependent KCNE4 dimerization controls membrane targeting” (Scientific Reports, 2021).
# B1: KCNE4-loopBAD-GFP (natural protein, mouse, UniProt Q9WTW3 1-170, looked up)
# chain: MLRMEPLNSTYPSAAASSSPLESHVPSNSSGNGNEYFYILVVMSFYGVFLIGIMLGYMKSKRREKKSSLLLLYKDEERLWGEAMKPLPMMSGLRSGQVPMMLNMLQESVAPALSCTLCSMEGDSVSSESSSPDVHLPIQEEGADDELEETSETPLNDSSEGSSENIHQNS
# modifications: biotin on the loopBAD tag (BirA co-expressed)
# notes: KCNE4, mouse (mKCNE4), UniProtKB Q9WTW3; KCNE4-GFP with a loopBAD tag introduced at an NruI restriction site; source: HEK-293, electroporated with BirA, on the cell surface
# B2: Kv1.3-CFP (natural protein, rat, UniProt P15384 1-525, looked up)
# chain: MTVVPGDHLLEPEAAGGGGGDPPQGGCVSGGGCDRYEPLPPALPAAGEQDCCGERVVINISGLRFETQLKTLCQFPETLLGDPKRRMRYFDPLRNEYFFDRNRPSFDAILYYYQSGGRIRRPVNVPIDIFSEEIRFYQLGEEAMEKFREDEGFLREEERPLPRRDFQRQVWLLFEYPESSGPARGIAIVSVLVILISIVIFCLETLPEFRDEKDYPASPSQDVFEAANNSTSGASSGASSFSDPFFVVETLCIIWFSFELLVRFFACPSKATFSRNIMNLIDIVAIIPYFITLGTELAERQGNGQQAMSLAILRVIRLVRVFRIFKLSRHSKGLQILGQTLKASMRELGLLIFFLFIGVILFSSAVYFAEADDPSSGFNSIPDAFWWAVVTMTTVGYGDMHPVTIGGKIVGSLCAIAGVLTIALPVPVIVSNFNYFYHRETEGEEQAQYMHVGSCQHLSSSAEELRKARSNSTLSKSEYMVIEEGGMNHSAFPQTPFKTGNSTATCTTNNNPNSCVNIKKIFTDV
# notes: Kv1.3, rat (rKv1.3), subcloned from pRcCMV into pECFP-C1; pECFP-C1 is surmised to put CFP at the N-terminus of the insert; source: HEK-293, transfected; in lysate (cross-linking) or in fixed cells (FRET)
# B3: Kv1.3-loopBAD-GFP (natural protein, rat, UniProt P15384 1-525, looked up)
# chain: B2 chain
# modifications: biotin on the loopBAD tag (BirA co-expressed)
# notes: Kv1.3, rat (rKv1.3); GFP-Kv1.3 with a loopBAD tag introduced at an NruI restriction site; source: HEK-293, electroporated with BirA, on the cell surface
# Legend:
# [1] = biological target: the molecule itself; assay: counting of GFP bleaching steps of single spots (TIRF microscopy); loopBAD-GFP proteins biotinylated by BirA on HEK-293 cells, immobilised through neutravidin on biotinylated glass; bleaching steps counted per spot
# [2] = biological target: the molecule itself; assay: cross-linking; HEK-293 lysates (50 mM boric acid, 100 mM K acetate, 2 mM MgCl2, 1 mM EGTA, 1% Triton X-100, pH 8.5) with or without 5 mM DMP for 1 h; 7% SDS-PAGE, immunoblot against CFP
Protein,stoichiometry N [1],stoichiometry N [2]
B1,2,
B2,,4
B3,4,
